Experimental data reported in paper PMC9776037.

Legend:
[1] = target: α2 portion of the human α2δ1 protein (voltage-sensitive calcium channel subunit) (human); experiment: localized surface plasmon resonance (LSPR); α2 amide-coupled to gold triangular nanoprisms on glass; sensors incubated with 1 × 10^−16 to 1 × 10^−8 M PLN or PLN domains in PBS pH 7.2; Δλ_LSPR by UV-visible spectroscopy; KD from Hill-Langmuir fit with extrapolated Bmax
[2] = target: α2 portion of the human α2δ1 protein (voltage-sensitive calcium channel subunit) (human); experiment: localized surface plasmon resonance (LSPR); α2-functionalized sensors incubated overnight with full-length PLN (10 nM) or PLN Dm III-2 (100 nM), no GBP; Δλ_LSPR

| Substance | Kd [1] [µM] | Δλ LSPR [2] [nm] |
| --- | --- | --- |
| Perlecan domain IV-3 (PLN Dm IV-3) (domain or fragment) | 280 | – |
| Perlecan domain III-2, cysteine-free globular region (laminin IV-A2) (domain or fragment) | 8e-05 | 12.7 |
| Perlecan domain IV-1 (PLN Dm IV-1) (domain or fragment) | 0.14 | – |
| Perlecan domain IV-2 (PLN Dm IV-2) (domain or fragment) | 430 | – |
